Measured values: the supplement of paper PMC7877785
± gives the uncertainty stated by the source.

Assay: self-splicing fitness, log relative to wild type (ln ratio); higher = more splicing; Tetrahymena group I intron in knt gene, E. coli kanamycin selection, DiMSum; sequences stand for … in CUCUCU…GGAGGGAAAAGUUAUCAGGCAUGCACCUGGUAGCUAGUCUUUAAACCAAUAGAUUGCAUCGGUUUAAAAGGCAAGACCGUCAAAUUGCGGGAAAGGGGUCAACAGCCGUUCAGUACCAAGUCUCAGGGGAAACUUUGAGAUGGCCUUGCAAAGGGUAUGGUAAUAAGCUGACGGACAUGGUCCUAACCACGCAGCCAAGUCCUAAGUCAACAGAUCUUCUGUUGAUAUGGAUGCAGUUCACAGACUAAAUGUCGGUCGGGGAAGAUGUAUUCUUCUCAUAAGAUAUAGUCGGACCUCUCCUUAAUGGGAGCUAGCGGAUGAAGUGAUGCAACACUGGAGCCGCUGGGAACUAAUUUGUAUGCGAAAGUAUAUUGAUUAGUUUUGGAGUACUCGUGGUCG
Method in brief: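 A randomised library covering all eight P1ex-region intron nucleotides was built with the intron in the knt kanamycin-resistance gene on pET-22b(+) and held in E. coli BL21(DE3). Cells were grown overnight at 37°C or 30°C on LB agar, with or without 25 μg/mL kanamycin, plus 100 μg/mL carbenicillin, 50 μM IPTG and 0.2% rhamnose, and pooled colonies were amplicon-sequenced on an Illumina HiSeq 2500. DiMSum fitness is the error-weighted combination of wild-type-normalised replicate fold changes, kanamycin versus none.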

Sequence	self-splicing fitness (ln) (30 °C)	self-splicing fitness (ln) (37 °C)
GACCAGCAAUAUUACGCACA	-0.51 ± 0.05	-0.0966 ± 0.07
GACCAGCAAUAUUACGCAUU	-0.15 ± 0.053	0.0155 ± 0.067
GACCAGCAAUAUUACGCGAC	-2.3 ± 0.11	-1.04 ± 0.13
GACCAGCAAUAUUACGCUAA	-1.18 ± 0.078	0.196 ± 0.093
GACCAGCAAUAUUACGGAAU	-0.34 ± 0.046	0.128 ± 0.066
GACCAGCAAUAUUACGGACG	0.108 ± 0.075	0.272 ± 0.094
GACCAGCAAUAUUACGGCGU	0.046 ± 0.071	0.319 ± 0.087
GACCAGCAAUAUUACGUAGU	-0.667 ± 0.061	-0.248 ± 0.077
GACCAGCAAUAUUACGUCAA	-2.51 ± 0.18	-1.06 ± 0.1
GACCAGCAAUAUUACGUCGA	-1.44 ± 0.078	-0.592 ± 0.078
GACCAGCAAUAUUACGUCGG	-2.79 ± 0.21	-1.98 ± 0.28
GACCAGCAAUAUUACGUGCC	-0.32 ± 0.11	-0.217 ± 0.13
GACCAGCAAUAUUACGUGCU	-2.85 ± 0.12	-2.63 ± 0.21
GACGAGCAAUAUUACGAAGU	-3.26 ± 0.22	-2.57 ± 0.26
GACGAGCAAUAUUACGAUCA	-2.22 ± 0.36	-0.86 ± 0.23
GACGAGCAAUAUUACGCCGC	-2.06 ± 0.16	-1.72 ± 0.38
GACGAGCAAUAUUACGCGUA	-1.82 ± 0.12	-1.95 ± 0.098
GACGAGCAAUAUUACGCUAA	-2.64 ± 0.35	-2.25 ± 0.31
GACGAGCAAUAUUACGCUCG	-1.59 ± 0.35	-1.6 ± 0.33
GACGAGCAAUAUUACGGAAU	-3.93 ± 0.28	-0.331 ± 0.16
GACGAGCAAUAUUACGGCUA	-0.73 ± 0.11	-0.653 ± 0.11
GACGAGCAAUAUUACGUAGG	-3.47 ± 0.25	-2.12 ± 0.22
GACGAGCAAUAUUACGUCGA	-1.82 ± 0.23	–
GACGAGCAAUAUUACGUGCA	-3.06 ± 0.17	-0.901 ± 0.16
GACGAGCAAUAUUACGUUAA	-3.77 ± 0.27	-2.79 ± 0.25

Sequence	self-splicing fitness (ln) (30 °C)	self-splicing fitness (ln) (37 °C)
GACGAGCAAUAUUACGUUAG	-3.02 ± 0.17	-2.56 ± 0.19
GACUAGCAAUAUUACGACGU	-0.558 ± 0.085	0.328 ± 0.099
GACUAGCAAUAUUACGACUC	-0.54 ± 0.097	0.55 ± 0.14
GACUAGCAAUAUUACGAUGG	-3.49 ± 0.13	-2.24 ± 0.12
GACUAGCAAUAUUACGCACG	-0.535 ± 0.068	0.219 ± 0.085
GACUAGCAAUAUUACGCAUA	-0.568 ± 0.1	-0.145 ± 0.096
GACUAGCAAUAUUACGCCAA	–	-1.6 ± 0.29
GACUAGCAAUAUUACGCCUC	-0.374 ± 0.14	-1.76 ± 0.16
GACUAGCAAUAUUACGCUAG	-2.44 ± 0.31	-1.16 ± 0.26
GACUAGCAAUAUUACGCUAU	–	-3.22 ± 0.43
GACUAGCAAUAUUACGGAAC	-1.61 ± 0.12	-1.15 ± 0.17
GACUAGCAAUAUUACGGAAU	-2.12 ± 0.12	-1.91 ± 0.14
GACUAGCAAUAUUACGGACC	-1.77 ± 0.38	-0.714 ± 0.39
GACUAGCAAUAUUACGGCUG	-1.04 ± 0.079	-0.193 ± 0.087
GACUAGCAAUAUUACGGGAU	-1.59 ± 0.14	-0.788 ± 0.14
GACUAGCAAUAUUACGGGCC	–	-2.46 ± 0.41
GACUAGCAAUAUUACGUAUA	-1.01 ± 0.11	-0.555 ± 0.13
GACUAGCAAUAUUACGUCAA	-2.55 ± 0.16	-2 ± 0.12
GACUAGCAAUAUUACGUCCU	-1.15 ± 0.2	0.446 ± 0.17
GACUAGCAAUAUUACGUGAU	-1.83 ± 0.078	-0.383 ± 0.087
GACUAGCAAUAUUACGUGGU	-3.39 ± 0.13	-2.73 ± 0.15
GACUAGCAAUAUUACGUUCU	-3.33 ± 0.26	-0.968 ± 0.14
GAGAAGCAAUAUUACGAAGC	-3.21 ± 0.28	-1.65 ± 0.29
GAGAAGCAAUAUUACGACAG	-2.31 ± 0.19	-3.09 ± 0.4
